± gives the standard deviation.
Assay: protein stability index of a GFP-peptide fusion (GPS, HEK-293T) (PSI 1-6); higher = more stable
Details: c terminus: a fixed tail appended
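Also: 24-mer peptide tiles fused after GFP, lentivirally expressed, FACS-sorted into six equal bins by GFP/DsRed ratio, decoded by Illumina sequencing, PSI is the read-weighted mean bin number.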

Sequence TSSVSCALDEAAAALTRMRAESTA [ANKRD17] has a protein stability index (treatment: DMSO) of 3.06 ± 0.42 and a protein stability index (treatment: MLN4924 1 uM, 8 h) of 3.05 ± 0.32.
TTENENTKFEVRLLRDPADASEAH [CHGB] gave a protein stability index (treatment: DMSO) of 5.18 ± 0.21 and a protein stability index (treatment: MLN4924 1 uM, 8 h) of 5.24 ± 0.14.
For TWAPKNKGGEERKAEGGEEDSLGC [IRX6], the protein stability index (treatment: DMSO) was 5.5 ± 0.16 and the protein stability index (treatment: MLN4924 1 uM, 8 h) was 5.42 ± 0.18.
For TWLPSRAEWLLAVRSIQPEEKERI [AASDHPPT], the protein stability index (treatment: DMSO) was 3.3 ± 0.31 and the protein stability index (treatment: MLN4924 1 uM, 8 h) was 3.29 ± 0.2.
Sequence TWMFFFMMCVAERTYKQRFLFAKL [PHTF1] has a protein stability index (treatment: DMSO) of 2.83 ± 0.22 and a protein stability index (treatment: MLN4924 1 uM, 8 h) of 2.92 ± 0.36.
TYEEAAAYIQCQFEDLNKRKDTKE [GNAI1] showed a protein stability index (treatment: DMSO) of 4.61 ± 0.15 and a protein stability index (treatment: MLN4924 1 uM, 8 h) of 4.67 ± 0.12.
Work on VAHVESLQEKSQCALEEYVRSQYP [NR2F2] yielded a protein stability index (treatment: DMSO) of 3.6 ± 0.28 and a protein stability index (treatment: MLN4924 1 uM, 8 h) of 3.96 ± 0.25.
In the case of VAQGPTNQGLNVMVWNQNGKSPSI [ADAMTSL2], the protein stability index (treatment: DMSO) is reported as 3.11 ± 0.4 and the protein stability index (treatment: MLN4924 1 uM, 8 h) is reported as 3.62 ± 0.23.
Work on VAWCYYSVSLRKAERLRAELLDLK [MYORG] yielded a protein stability index (treatment: DMSO) of 2.35 ± 0.42 and a protein stability index (treatment: MLN4924 1 uM, 8 h) of 2.15 ± 0.47.
Work on VCTVQFLISKGANVNRTTANNDHT [ANKRD17] yielded a protein stability index (treatment: DMSO) of 2.28 ± 0.24 and a protein stability index (treatment: MLN4924 1 uM, 8 h) of 2.46 ± 0.4.
VDCACLKENPECPVLKRSSESMEN [KMT2E] showed a protein stability index (treatment: DMSO) of 4.96 ± 0.37 and a protein stability index (treatment: MLN4924 1 uM, 8 h) of 4.98 ± 0.19.
VDFQCVKSKSITNLAAAAADIPQD [BTBD10] showed a protein stability index (treatment: DMSO) of 4.79 ± 0.28 and a protein stability index (treatment: MLN4924 1 uM, 8 h) of 4.8 ± 0.11.
Sequence VDFTFVENVVHGHILAAEQLSRDS [NSDHL] has a protein stability index (treatment: DMSO) of 2.37 ± 0.36 and a protein stability index (treatment: MLN4924 1 uM, 8 h) of 2.26 ± 0.4.
Work on VDGDQSKILISGLEPSTPYRFLLY [TNXB] yielded a protein stability index (treatment: DMSO) of 2.41 ± 0.45 and a protein stability index (treatment: MLN4924 1 uM, 8 h) of 2.21 ± 0.48.
For VDLELFPSPDMECADVPLLTPSSK [ETS1], the protein stability index (treatment: DMSO) was 4.07 ± 0.24 and the protein stability index (treatment: MLN4924 1 uM, 8 h) was 4.05 ± 0.2.
Work on VDLVDESGYVSGYKHAGTYDQKVQ [TPPP] yielded a protein stability index (treatment: DMSO) of 4.04 ± 0.32 and a protein stability index (treatment: MLN4924 1 uM, 8 h) of 4.01 ± 0.17.
For VDPIGHLYIFATCLGLSYDGLLGD [MAGEA3], the protein stability index (treatment: DMSO) was 3.06 ± 0.37 and the protein stability index (treatment: MLN4924 1 uM, 8 h) was 3.21 ± 0.34.
In the case of VDSAEYSCLKAIVLFTSDACGLSD [NR2F2], the protein stability index (treatment: DMSO) is reported as 2.23 ± 0.38 and the protein stability index (treatment: MLN4924 1 uM, 8 h) is reported as 2.25 ± 0.31.
For VDTLNVKDIAPEKQLLNSAVIAQQ [DLC1], the protein stability index (treatment: DMSO) was 4.53 ± 0.36 and the protein stability index (treatment: MLN4924 1 uM, 8 h) was 4.55 ± 0.24.
For VEGKCLQSGFEMLKDVKSTLEKCE [TRIM39], the protein stability index (treatment: DMSO) was 4.31 ± 0.21 and the protein stability index (treatment: MLN4924 1 uM, 8 h) was 4.41 ± 0.19.
Work on VGAAGSARQELLGDRPRWQRLLGE [ANKRD9] yielded a protein stability index (treatment: DMSO) of 3.54 ± 0.27 and a protein stability index (treatment: MLN4924 1 uM, 8 h) of 3.31 ± 0.15.
VGLGTCSMFSRVGGIIAPFIPSLK [SLC22A15] showed a protein stability index (treatment: DMSO) of 2.1 ± 0.36 and a protein stability index (treatment: MLN4924 1 uM, 8 h) of 2.33 ± 0.45.
Sequence VGTAAVNMCLVATGGADAYYEMGI [IMPA1] has a protein stability index (treatment: DMSO) of 2.71 ± 0.045 and a protein stability index (treatment: MLN4924 1 uM, 8 h) of 2.73 ± 1.1.
With VISQLEQGTELWVAERGTTQGCHP [ZNF8] the protein stability index (treatment: DMSO) was 3.96 ± 0.29 and the protein stability index (treatment: MLN4924 1 uM, 8 h) was 3.99 ± 0.45.
In the case of VLCGVVMDRSLVQDAPLSDCTETI [ADD1], the protein stability index (treatment: DMSO) is reported as 3.11 ± 0.27 and the protein stability index (treatment: MLN4924 1 uM, 8 h) is reported as 2.99 ± 0.41.
With VLETKWELLQQLDLNNCKNNLEPI [KRT71] the protein stability index (treatment: DMSO) was 3.2 ± 0.17 and the protein stability index (treatment: MLN4924 1 uM, 8 h) was 3.17 ± 0.29.
Work on VLLIKDRTSKSRGFAFITFENPAD [RBMY1A1] yielded a protein stability index (treatment: DMSO) of 2.83 ± 0.88 and a protein stability index (treatment: MLN4924 1 uM, 8 h) of 3.06 ± 1.5.
In the case of VLMWTMLFLGQGIQVSLYCQEWYA [SOAT2], the protein stability index (treatment: DMSO) is reported as 2.87 ± 0.36 and the protein stability index (treatment: MLN4924 1 uM, 8 h) is reported as 3.3 ± 0.6.
Sequence VLPEDRILREELQKQRLREILEQQ [ZNF277] has a protein stability index (treatment: DMSO) of 4.63 ± 0.4 and a protein stability index (treatment: MLN4924 1 uM, 8 h) of 4.21 ± 0.41.
In the case of VLQHVRLPLLSPKFLVGTVGSDPL [KLHL20], the protein stability index (treatment: DMSO) is reported as 2.22 ± 0.28 and the protein stability index (treatment: MLN4924 1 uM, 8 h) is reported as 2.13 ± 0.1.
VMSIPDVIRLKQEQHVHNEKSVLK [PRKX] gave a protein stability index (treatment: DMSO) of 4.18 ± 0.15 and a protein stability index (treatment: MLN4924 1 uM, 8 h) of 4.25 ± 0.12.
Sequence VNEMCPNITRIYNIGKSHQGLKLY [CPXM2] has a protein stability index (treatment: DMSO) of 2.52 ± 0.35 and a protein stability index (treatment: MLN4924 1 uM, 8 h) of 2.57 ± 0.5.
VNLEEIPGEGLLISWAFTDRPDLS [C2CD2L] gave a protein stability index (treatment: DMSO) of 2.14 ± 0.15 and a protein stability index (treatment: MLN4924 1 uM, 8 h) of 2.08 ± 0.23.
Work on VPQALSATTYKHGVLTRKTHADMD [PSD2] yielded a protein stability index (treatment: DMSO) of 4.47 ± 0.18 and a protein stability index (treatment: MLN4924 1 uM, 8 h) of 4.56 ± 0.12.
Work on VPVPPAAAPPPPATPIVPVVPPTP [BRD3] yielded a protein stability index (treatment: DMSO) of 4.75 ± 0.43 and a protein stability index (treatment: MLN4924 1 uM, 8 h) of 4.75 ± 0.16.
With VQDWYHFHYVDILALLPAAWEDSH [SCNN1D] the protein stability index (treatment: DMSO) was 2.77 ± 0.61 and the protein stability index (treatment: MLN4924 1 uM, 8 h) was 2.67 ± 0.67.
VQELLPAACLLQLKGVKQACCEFL [KLHL12] gave a protein stability index (treatment: DMSO) of 2.27 ± 0.28 and a protein stability index (treatment: MLN4924 1 uM, 8 h) of 1.81 ± 0.37.
With VQEMRNKIREQNLQDIKTAGPQSQ [ADD1] the protein stability index (treatment: DMSO) was 4.98 ± 0.34 and the protein stability index (treatment: MLN4924 1 uM, 8 h) was 5.1 ± 0.1.
Sequence VQTEDQYQFSYRAALEYLGSFDHY [PTPRD] has a protein stability index (treatment: DMSO) of 2.22 ± 0.26 and a protein stability index (treatment: MLN4924 1 uM, 8 h) of 2.51 ± 0.22.
In the case of VRGLLASLFAFKSFRENWQRAWVR [C2CD2L], the protein stability index (treatment: DMSO) is reported as 2.3 ± 0.59 and the protein stability index (treatment: MLN4924 1 uM, 8 h) is reported as 2.61 ± 0.28.
For VRRGLAGATTLGDMIYVSGGFDGS [KLHL12], the protein stability index (treatment: DMSO) was 2.94 ± 0.56 and the protein stability index (treatment: MLN4924 1 uM, 8 h) was 2.87 ± 0.15.
VSDRLAPGAPRGNPPKASAAPDCT [MYCL] gave a protein stability index (treatment: DMSO) of 4.94 ± 0.22 and a protein stability index (treatment: MLN4924 1 uM, 8 h) of 4.95 ± 0.19.
Sequence VSGLDSSYLREQMLNEPLVREIVK [GAN] has a protein stability index (treatment: DMSO) of 3.14 ± 0.26 and a protein stability index (treatment: MLN4924 1 uM, 8 h) of 2.96 ± 0.25.
VSLGATGGPPAGPGGVYAGPEPPP [JUNB] gave a protein stability index (treatment: DMSO) of 4.61 ± 0.094 and a protein stability index (treatment: MLN4924 1 uM, 8 h) of 4.46 ± 0.31.
VSVNAQTLDGRTPLHLAAQRGHYR [RIPK4] gave a protein stability index (treatment: DMSO) of 3.76 ± 0.29 and a protein stability index (treatment: MLN4924 1 uM, 8 h) of 3.77 ± 0.58.

Source: the supplement of paper PMC10567573
